Data published in the supplement of paper PMC5998384.

How the values were obtained:
HeLa Kyoto [1] = assay: solubility change mitosis vs G1/S (difference of NP-40 vs SDS log2 ratios) (log2 ratio difference); higher = more soluble in mitosis
HeLa Kyoto [2] = assay: thermal stability score vs G1/S (z-score of summed log2 fold changes over temperatures); higher = more thermally stable than in G1/S
HeLa Kyoto [3] = assay: melting temperature (median over replicates), in situ; higher = more thermally stable
HeLa Kyoto [4] = assay: solubility in G1/S (NP-40 vs SDS abundance) (log2 ratio); higher = more soluble; conditions: cell cycle stage: G1/S
[5] = cell cycle stage: early G1 (4.5 h after nocodazole release)
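Throughout, for melting temperature (median over replicates), in situ: HeLa Kyoto cells synchronized by double thymidine or nocodazole block, proteins quantified by TMT10plex mass spectrometry, three independent biological replicates.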
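Throughout, for solubility change mitosis vs G1/S (difference of NP-40 vs SDS log2 ratios): synchronized HeLa Kyoto cells (double thymidine block for G1/S, nocodazole release for mitosis), protein amounts in NP-40 versus SDS lysates quantified by mass spectrometry, three biological replicates.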
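Throughout, for solubility in G1/S (NP-40 vs SDS abundance): HeLa Kyoto cells arrested at G1/S by double thymidine block, proteins quantified by TMT10plex mass spectrometry in mild NP-40 versus SDS extracts, three biological replicates.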
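Throughout, for thermal stability score vs G1/S (z-score of summed log2 fold changes over temperatures): synchronized HeLa Kyoto cells, proteins quantified by TMT10plex mass spectrometry, three biological replicates, mitosis taken 0.5 h after nocodazole release, G1/S directly after double thymidine block.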

Substance	solubility change mitosis (log2) (HeLa Kyoto [1])	thermal stability score (HeLa Kyoto [2]; [5])	thermal stability score (HeLa Kyoto [2]; cell cycle stage: mitosis)	melting temperature (HeLa Kyoto [3]; cell cycle stage: G1/S)	melting temperature (HeLa Kyoto [3]; cell cycle stage: mitosis)	solubility in G1/S (log2) (HeLa Kyoto [4])
MPAVDKLLLEEALQDSPQTRSLLSVFEEDAGTLTDYTNQLLQAMQRVYGAQNEMCLATQQLSKQLLAYEKQNFALGKGDEEVISTLHYFSKVVDELNLLHTELAKQLADTMVLPIIQFREKDLTEVSTLKDLFGLASNEHDLSMAKYSRLPKKKENEKVKTEVGKEVAAARRKQHLSSLQYYCALNALQYRKQMAMMEPMIGFAHGQINFFKKGAEMFSKRMDSFLSSVADMVQSIQVELEAEAEKMRVSQQELLSVDESVYTPDSDVAAPQINRNLIQKAGYLNLRNKTGLVTTTWERLYFFTQGGNLMCQPRGAVAGGLIQDLDNCSVMAVDCEDRRYCFQITTPNGKSGIILQAESRKENEEWICAINNISRQIYLTDNPEAVAIKLNQTALQAVTPITSFGKKQESSCPSQNLKNSEMENENDKIVPKATASLPEAEELIAPGTPIQFDIVLPATEFLDQNRGSRRTNPFGETEDESFPEAEDSLLQQMFIVRFLGSMAVKTDSTTEVIYEAMRQVLAARAIHNIFRMTESHLMVTSQSLRLIDPQTQVSRANFELTSVTQFAAHQENKRLVGFVIRVPESTGEESLSTYIFESNSEGEKICYAINLGKEIIEVQKDPEALAQLMLSIPLTNDGKYVLLNDQPDDDDGNPNEHRGAESEA [APPL2]	-0.0416	-0.102	0.993	49.1 °C	49.5 °C	0.193
MASGTTTTAVKIGIIGGTGLDDPEILEGRTEKYVDTPFGKPSDALILGKIKNVDCVLLARHGRQHTIMPSKVNYQANIWALKEEGCTHVIVTTACGSLREEIQPGDIVIIDQFIDRTTMRPQSFYDGSHSCARGVCHIPMAEPFCPKTREVLIETAKKLGLRCHSKGTMVTIEGPRFSSRAESFMFRTWGADVINMTTVPEVVLAKEAGICYASIAMATDYDCWKEHEEAVSVDRVLKTLKENANKAKSLLLTTIPQIGSTEWSETLHNLKNMAQFSVLLPRH [MTAP]	-0.0344	-1.8	-2.68	60 °C	60.5 °C	0.254
FNDC3B	0.0529	1.73	3.59	47.9 °C	50.5 °C	-0.0341
MPVQLSEHPEWNESMHSLRISVGGLPVLASMTKAADPRFRPRWKVILTFFVGAAILWLLCSHRPAPGRPPTHNAHNWRLGQAPANWYNDTYPLSPPQRTPAGIRYRIAVIADLDTESRAQEENTWFSYLKKGYLTLSDSGDKVAVEWDKDHGVLESHLAEKGRGMELSDLIVFNGKLYSVDDRTGVVYQIEGSKAVPWVILSDGDGTVEKGFKAEWLAVKDERLYVGGLGKEWTTTTGDVVNENPEWVKVVGYKGSVDHENWVSNYNALRAAAGIQPPGYLIHESACWSDTLQRWFFLPRRASQERYSEKDDERKGANLLLSASPDFGDIAVSHVGAVVPTHGFSSFKFIPNTDDQIIVALKSEEDSGRVASYIMAFTLDGRFLLPETKIGSVKYEGIEFI [CANT1]	-0.137	-0.646	-1.1	55.2 °C	54.6 °C	0.0305
MSGRGAGGFPLPPLSPGGGAVAAALGAPPPPAGPGMLPGPALRGPGPAGGVGGPGAAAFRPMGPAGPAAQYQRPGMSPGNRMPMAGLQVGPPAGSPFGAAAPLRPGMPPTMMDPFRKRLLVPQAQPPMPAQRRGLKRRKMADKVLPQRIRELVPESQAYMDLLAFERKLDQTIARKRMEIQEAIKKPLTQKRKLRIYISNTFSPSKAEGDSAGTAGTPGGTPAGDKVASWELRVEGKLLDDPSKQKRKFSSFFKSLVIELDKELYGPDNHLVEWHRMPTTQETDGFQVKRPGDLNVKCTLLLMLDHQPPQYKLDPRLARLLGVHTQTRAAIMQALWLYIKHNQLQDGHEREYINCNRYFRQIFSCGRLRFSEIPMKLAGLLQHPDPIVINHVISVDPNDQKKTACYDIDVEVDDPLKAQMSNFLASTTNQQEIASLDVKIHETIESINQLKTQRDFMLSFSTDPQDFIQEWLRSQRRDLKIITDVIGNPEEERRAAFYHQPWAQEAVGRHIFAKVQQRRQELEQVLGIRLT [SMARCD2]	0.00253	0.352	1.15	48 °C	49.2 °C	0.445
MPLHQLGDKPLTFPSPNSAMENGLDHTPPSRRASPGTPLSPGSLRSAAHSPLDTSKQPLCQLWAEKHGARGTHEVRYVSAGQSVACGWWAFAPPCLQVLNTPKGILFFLCAAAFLQGMTVNGFINTVITSLERRYDLHSYQSGLIASSYDIAACLCLTFVSYFGGSGHKPRWLGWGVLLMGTGSLVFALPHFTAGRYEVELDAGVRTCPANPGAVCADSTSGLSRYQLVFMLGQFLHGVGATPLYTLGVTYLDENVKSSCSPVYIAIFYTAAILGPAAGYLIGGALLNIYTEMGRRTELTTESPLWVGAWWVGFLGSGAAAFFTAVPILGYPRQLPGSQRYAVMRAAEMHQLKDSSRGEASNPDFGKTIRDLPLSIWLLLKNPTFILLCLAGATEATLITGMSTFSPKFLESQFSLSASEAATLFGYLVVPAGGGGTFLGGFFVNKLRLRGSAVIKFCLFCTVVSLLGILVFSLHCPSVPMAGVTASYGGSLLPEGHLNLTAPCNAACSCQPEHYSPVCGSDGLMYFSLCHAGCPAATETNVDGQKVYRDCSCIPQNLSSGFGHATAGKCTSTCQRKPLLLVFIFVVIFFTFLSSIPALTATLRCVRDPQRSFALGIQWIVVRILGGIPGPIAFGWVIDKACLLWQDQCGQQGSCLVYQNSAMSRYILIMGLLYKVLGVLFFAIACFLYKPLSESSDGLETCLPSQSSAPDSATDSQLQSSV [SLCO4A1]	-0.143	-0.978	-0.221	55.2 °C	56.9 °C	0.576
